From patent publication US20050084449A1
Substitutions are numbered along the chain they refer to.

B1: anti-TIM-1 mAb 1.29 (antibody, human IgG2, V domains shown)
VH: QVQLQESGPGLVKPSETLSLTCTVSGGSVSSGGYYWSWIRQPPGKGLEWIGFIYYTGSTNYNPSLKSRVSISVDTSKNQFSLKLSSVTAADAAVYYCARDYDWSFHFDYWGQGTLVTVSS
VL: DIQMTQSPSSLSASIGDRVTITCRASQGIRNDLGWYQQKPGKAPKRLIYAASSLQSGVPSRFSGSGSGTEFTLTISSLQPEDFATYYCLQHNSYPLTFGGGTKVEIKR
B2: anti-TIM-1 mAb 2.61 (antibody, human IgG4, V domains shown)
VH: QVQLVEAGGGVVQPGRSLRLSCAASGFTFRSYGMHWVRQAPGKGLKWVAVIWYDGSNKYYTDSVKGRFTISRDNSKNTLYLQMNSLRAEDTAVYYCVRDYYDNSRHHWGFDYWGQGTLVTVSS
VL: B1 VL with L11R, S12C, I15V, G34A, G66R, T85A, L96P, T97S, G100Q, V104L
B3: anti-TIM-1 mAb 1.37 (antibody, human IgG2, V domains shown)
VH: EVQLVESGGGLVQPGGSLRLSCAASGFTFTNYWMSWVRQAPGKGLEWVANIQQDGSEKYYVDSVRGRFTISRDNAKNSLYLQMNSLRAEDSAVYYCARWDYWGQGTLVTVSS
VL: DIVMTQTPLSSTVILGQPASISCRSSQSLVHSDGNTYLNWLQQRPGQPPRLLIYMISNRFSGVPDRFSGSGAGTDFTLKISRVEAEDVGVYYCMQATESPQTFGQGTKVEIKR
B4: anti-TIM-1 mAb 2.70 (antibody, V domains shown)
VH: B2 VH with A7S, T28I, R30S, S31R, Y59L, T61A, V97A
VL: DIVMTQTPLSLPVTPGEPASISCRSSRSLLDSDDGNTYLDWYLQKPGQSPQLLIYTLSYRASGVPDRFSGSGSGTDFTLKISRVEAEDVGVYYCMQRVEFPITFGQGTRLEIKR

Target: TIM-1 antigen (soluble extracellular domain of TIM-1, CG57008-02, with a V5-HIS tag) (human) (UniProt Q96D42)
Experiment: BIAcore 2000, mAb captured on goat anti-human surface, TIM-1 antigen injected, 25 C

Binder	Kd [nM]
B1	3.64
B2	1
B3	2.78
B4	2.71
